# Source: US20170051048A1 (ALDERBIO, published 2017)
# Experiments:
# [1] = target: T1, Homo sapiens Beta-Nerve Growth Factor (beta-NGF) (Homo sapiens, UniProt P01138 122-241); test: Antigen binding ELISA: biotinylated NGF on neutravidin plates, anti-human Fc-HRP, OD 450 nm
# T1 construct: Biotinylated and held on neutravidin plates in the ELISA; also called huNGF; B-NGF
# Method: (§1) To identify and characterize antibodies and Fab fragments that bind to human NGF, antibody- and Fab-containing solutions were tested by ELISA. Briefly, neutravidin coated plates (Thermo Scientific), were blocked with ELISA buffer (0.1 mg/mL BSA, 1×PBS pH 7.4, 0.002% Tween 20 and 0.005% sodium azide) for 1 hr at room temperature. The plates were then coated with a 1 µg/mL biotinylated B-NGF solution in ELISA buffer for 1 hour at room temperature. This was followed by a wash step (3× using PBS plus 0.05% Tween 20) and a second block with ELISA buffer. The recombinant antibodies or Fabs were then added onto the plates and incubated for 1 hour at room temperature and then washed 3× with PBS/Tween solution. For development, an anti-human Fc-HRP or an anti-human Fab-fragment HRP (1:5000 dilution in ELISA buffer) was added onto the wells and incubated for 45 min at RT. After a 3× wash step with PBS/Tween solution, the plate was developed using TMB substrate for 3 minutes, stopped using 0.5M HCl, and read at 450 nm.
# [2] = target: T1, Homo sapiens Beta-Nerve Growth Factor …; test: antigen binding ELISA: biotinylated NGF on neutravidin plates, anti-human Fc-HRP, OD at 450 nm
# Method: as §1
# T1 sequence (P01138 122-241): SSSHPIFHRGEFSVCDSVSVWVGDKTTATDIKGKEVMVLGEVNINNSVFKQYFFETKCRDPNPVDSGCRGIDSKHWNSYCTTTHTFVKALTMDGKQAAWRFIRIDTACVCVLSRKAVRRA
Binder,EC50 [1] [nM],EC50 (read off the curve) [1] [nM],EC50 [2] [nM]
"Antibody Ab1 (antibody, human IgG1, kappa, N297A, V domains shown) VH: QSLEESGGRLVTPGTPLTLTCTVSGFSLSSYAMSWVRQAPGKGLEWIGVITSIGSTVYASWAKGRFTISKTSTTVDLKITSPTTEDTATYFCARGYDDYDEMTYFNIWGQGTLVTVSS VL: ALVMTQTPSSVSAAVGGTVTINCQASQNIYSNLAWYQQRPGQRPKLLIYGASNLDAGVPSRFRGSGSGTEYTLTISDLECDDVGTYYCQSAFDSDSTENTFGGGTEVVVKR",0.571,~0.6,–
"Antibody Ab4 (antibody, human IgG1, kappa, N297A, V domains shown) VH: EVQLVESGGGLVQPGGSLRLSCAASGFTVSSYVMIWVRQAPGKGLEYIGITWSAGTYYASSAKGRFTISRDNSKNTLYLQMNSLRAEDTAVYYCAGGGGSIYDIWGQGTLVTVSS VL: DIQMTQSPSTLSASVGDRVTITCQSSQSVYKNNYLSWYQQKPGKAPKLLIYDASNLPSGVPSRFSGSGSGTEFTLTISSLQPDDFATYYCLGDYDDDADNAFGGGTKVEIKR",0.535,~0.05,–
"Antibody Ab7 (antibody, human IgG1, kappa, N297A, V domains shown) VH: QEQLKESGGRLVTPGTPLTLTCTVSGFSLSSYAMIWVRQAPGKGLEYIGYIDTDTSAYYASWVKGRFTISRTSTTVDLKITSPTTEDTATYFCARSYAAYGGYPATFDPWGPGTLVTVSS VL: DVVMTQTPASVSQPVGGTVTIKCQASEDIYNLLAWYQQKPGQPPKLLIYSASTLASGVPSRFKGSGSGTEYTLTISGLECADAATYYCQNNYLVTTYGVAFGGGTEVVVKR",–,–,0.203
"Antibody Ab8 (antibody, human IgG1, kappa, N297A, V domains shown) VH: QVQLVESGGGVVQPGRSLRLSCAASGFTFSSYAMIWVRQAPGKGLEYIGYIDTDTSAYYASSVKGRFTISRDNSKNTLYLQMSSLRAEDTAVYYCARSYAAYGGYPATFDPWGQGTLVTVSS VL: DIQMTQSPSSLSASVGDRVTITCQASEDIYNLLAWYQQKPGKVPKLLIYSASTLASGVPSRFSGSGSGTDYTLTISSLQPEDVATYYCQNNYLVTTYGVAFGGGTKVEIKR",–,–,0.207
"Antibody Ab9 (antibody, human IgG1, kappa, N297A, V domains shown) VH: QSVEESGGRLVTPGTPLTLTCTVSGIDLSMYSMGWVRQAPGKGLEYIGWISYGGTAYYASWAKGRFTISKTSTTVELKITSPTIEDTATYFCARETPVNYYLDIWGQGTLVTVSS VL: AYDMTQTPASVSAAVGGTVTIKCQASENIGSYLAWYQQKPGQPPELLIYRASTLASGVPSRFKGSGSGTQFTLTISGVECADAATYYCQQGYNSENLDNAFGGGTEVVVKR",–,–,0.221
"Antibody Ab10 (antibody, human IgG1, kappa, N297A, V domains shown) VH: QVQLVESGGGVVQPGRSLRLSCAASGFTFSMYSMGWVRQAPGKGLEYIGWISYGGTAYYASSAKGRFTISRDNSKNTLYLQMSSLRAEDTAVYYCARETPVNYYLDIWGQGTLVTVSS VL: AYDMTQSPSSLSASVGDRVTITCQASENIGSYLAWYQQKPGKVPKLLIYRASTLASGVPSRFSGSGSGTDFTLTISSLQPEDVATYYCQQGYNSENLDNAFGGGTKVEIKR",–,–,0.306
"Antibody Ab11 (antibody, human IgG1, kappa, N297A, V domains shown) VH: QSLEESGGRLVTPGTPLTLTCTASGFSLSGYDMSWVRQAPGKGLEYIGLISYDGNTYYATWAKGRFTISKTSTTVDLKITSPTTEDTATYFCARSLYAGPNAGIGPFNIWGQGTLVTVSS VL: AFELTQTPSSVEAAVGGTVTIKCQASQNIVTNLAWYQQKPGQPPKLLIYGASTLASGVSSRFKGSGSGTQFTLTISDLECADAATYFCQSYDGFNSAGFGGGTEVVVKR",–,–,0.379
"Antibody Ab12 (antibody, human IgG1, kappa, N297A, V domains shown) VH: QVQLVESGGGVVQPGRSLRLSCAASGFSLSGYDMSWVRQAPGKGLEWVGLISYDGNTYYATSAKGRFTISRDNSKNTLYLQMSSLRAEDTAVYYCARSLYAGPNAGIGPFNIWGQGTLVTVSS VL: AFQMTQSPSSLSASVGDRVTITCQASQNIVTNLAWYQQKPGKVPKLLIYGASTLASGVPSRFSGSGSGTDFTLTISSLQPEDVATYYCQSYDGFNSAGFGGGTKVEIKR",–,–,0.78
"Antibody Ab13 (antibody, human IgG1, kappa, N297A, V domains shown) VH: QSVEASGGRLVTPGTPLTLTCTASGFSLSTYWMSWVRQAPGKGLEWIGDIYFSNEETNYASWAKGRFTISKTSTTVDLNVISPTTEDTATYFCARGSPDVDIGIDMWGPGTLVTVSS VL: AAVLTQTPSPVSAAVGGTVSISCQSSQNVYKNNYLSWYQQKPGQPPKLLIYKASTLASGVPSRFKGGGSGTDFTLTISDVQCDAAATYYCAGGYTSSSDNAFGGGTEVVVKR",–,–,0.339
"Antibody Ab19 (antibody, human IgG1, kappa, N297A, V domains shown) VH: QSVEASGGRLVMPGGSLTLTCTASGFSLSTYWMSWVRQAPGKGLEWIGDIYFSNEETNYATWAKGRFTISKTSTTVDLNVISPTTEDTATYFCARGSPDVEIAIDMWGQGTLVTVSS VL: AAVLTQTPSPVSAAVGGTVSISCQSSQNVYKNNYLSWYQQKPGQPPKLLIYKASTLASGVPSRFKGSGSGTDFTLTISDVQCDAAATYYCAGGYSSSSDNAFGGGTEVVVKR",–,–,0.441
"Antibody Ab14 (antibody, human IgG1, kappa, N297A, V domains shown) VH: EVQLVESGGGLVQPGGSLRLSCAASGFTVSTYWMSWVRQAPGKGLEWVGDIYFSNEETNYASSAKGRFTISRDNSKNTLYLQMNSLRAEDTAVYYCARGSPDVDIGIDMWGPGTLVTVSS VL: DIQMTQSPSSLSASVGDRVTITCQSSQNVYKNNYLSWYQQKPGKVPKLLIYKASTLASGVPSRFSGSGSGTDFTLTISSLQPEDVATYYCAGGYTSSSDNAFGGGTKVEIKR",–,–,0.646
"Antibody Ab20 (antibody, human IgG1, kappa, N297A, V domains shown) VH: EVQLVESGGGLVQPGGSLRLSCAASGFTVSTYWMSWVRQAPGKGLEWVGDIYFSNEETNYATSAKGRFTISRDNSKNTLYLQMNSLRAEDTAVYYCARGSPDVEIAIDMWGQGTLVTVSS VL: DIQMTQSPSSLSASVGDRVTITCQSSQNVYKNNYLSWYQQKPGKVPKLLIYKASTLASGVPSRFSGSGSGTDFTLTISSLQPEDVATYYCAGGYTSSSDNAFGGGTKVEIKR",–,–,0.667
"Antibody Ab15 (antibody, human IgG1, kappa, N297A, V domains shown) VH: QSVEESGGRLVTPGTPLTLTCTVSGIDLSSYAMIWVRQAPGKGLEYIGIIWSGGTYYATWAKGRFTISKTSTTVDLQITSPTTEDAATYFCAAGGGSIYDVWGPGTLVTVSS VL: AAVLTQTPSPVSAAVGDTVTIKCQSSQSVYKNNYLSWYQQKPGQPPKLLIYDASNLPSGVPSRFSGSGSGTQFTLTISGVQCDDAATYYCLGDYDDDTDNGFGGGTEVVVKR",–,–,0.239
"Antibody Ab16 (antibody, human IgG1, kappa, N297A, V domains shown) VH: QSVEEFGGRLVTPGTPLTLTCTVSGFSLNNYAMTWVRQAPGKGLEWIGIIGSIGTTYYASWAKGRFFISKTSTTVDLKIISPTTEDTATYFCARDAGVTVDGYGYYFNIWGPGTLVTVSS VL: ALVMTQTPSSTSEPVGGTVTINCQASQNIGNDLSWYQQKPGQPPELLIYSTSKLATGVPKRFSGSRSGTQFTLTISDLECDDAATYYCLGVYSYISDDGNAFGGGTEVVVKR",–,–,0.358
"Antibody Ab17 (antibody, human IgG1, kappa, N297A, V domains shown) VH: QSLEESGGRLVTPGGSLTLTCAASGFSLTGYNLVWVRQAPGKGLEWIGFISYGDTTYYASWAKGRFTISKTSTTVTLTITDLQPSDTGTYFCARETANTYDYGIWGPGTLVTVSS VL: AIEMTQTPFSVSAAVGGTVTIKCQASQTISNYLAWYQQKPGQPPKLLIYGASNLESGVPSRFKGSGSGTQFTLTISDLECDDAATYYCQQGYTISNVDNNVFGGGTEVVVKR",–,–,0.7
"Antibody Ab18 (antibody, human IgG1, kappa, N297A, V domains shown) VH: EVQLVESGGGLVQPGGSLRLSCAASGFTVSGYNLVWVRQAPGKGLEWVGFISYGDTTYYASSAKGRFTISRDNSKNTLYLQMNSLRAEDTAVYYCARETANTYDYGIWGQGTLVTVSS VL: DIQMTQSPSTLSASVGDRVTITCQASQTISNYLAWYQQKPGKAPKLLIYGASNLESGVPSRFSGSGSGTEFTLTISSLQPDDFATYYCQQGYTISNVDNNVFGGGTKVEIKR",–,–,0.561
